Results: US20130230533A1 (Regeneron, published 2013)

T1: Monomeric human CD48-mmH (human)
T1 construct: also called soluble CD48 expressed with a myc-myc-hexa-histidine C-terminal tag [mmH]
T1 chain: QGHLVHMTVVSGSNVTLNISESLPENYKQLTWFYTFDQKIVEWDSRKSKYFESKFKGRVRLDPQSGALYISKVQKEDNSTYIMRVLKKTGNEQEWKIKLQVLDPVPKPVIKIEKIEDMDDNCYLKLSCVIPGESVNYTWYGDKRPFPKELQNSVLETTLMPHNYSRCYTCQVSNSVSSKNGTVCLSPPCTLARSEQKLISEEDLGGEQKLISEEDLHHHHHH

T2: Dimeric human CD48-mFc (human)
T2 chain: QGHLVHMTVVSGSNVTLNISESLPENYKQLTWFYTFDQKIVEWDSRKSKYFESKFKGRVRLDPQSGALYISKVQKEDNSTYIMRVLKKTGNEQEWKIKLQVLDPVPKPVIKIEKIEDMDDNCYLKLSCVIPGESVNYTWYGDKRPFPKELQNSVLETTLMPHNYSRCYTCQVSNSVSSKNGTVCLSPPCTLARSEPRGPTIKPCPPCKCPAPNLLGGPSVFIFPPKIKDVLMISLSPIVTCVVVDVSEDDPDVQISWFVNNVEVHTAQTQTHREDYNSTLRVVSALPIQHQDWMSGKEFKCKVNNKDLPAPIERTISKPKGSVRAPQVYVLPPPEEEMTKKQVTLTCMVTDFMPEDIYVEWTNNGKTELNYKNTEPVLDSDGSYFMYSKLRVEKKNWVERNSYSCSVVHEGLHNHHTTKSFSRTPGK


Experiments:
Monomeric human CD48-mmH = biological target: T1, Monomeric human CD48-mmH; assay: SPR (Biacore T100), 25 C, antibody captured by anti-Fc, monomeric CD48-mmH in solution
Method: (§1) Measurements were conducted on a T100-2 BIACORE™ instrument (Biacore Life Sciences division of GE Healthcare, Piscataway, N.J.). Antibodies (either with mouse Fc [designated “H2M” or “H3M”] or human IgG4 Fc [designated “H4H”]) were captured through an anti-Fc chip surface, and CD48 was flowed over the surface either in a monomeric (soluble CD48 expressed with a myc-myc-hexa-histidine C-terminal tag [mmH]) or dimeric (soluble CD48 expressed with a C-terminal Fc fusion [mFc]) format.
(§2) The soluble CD48 was applied to the flow cell in separate injections at different concentrations, and kinetic association (kₐ) and dissociation (kd) rate constants were determined by fits to the kinetic binding data using Biacore software. Binding dissociation equilibrium constants and dissociation half-times were calculated from the kinetic rate constants as: KD=kd/kₐ; t_{1/2}=(ln 2/kd) (units: ka=M⁻¹*s⁻¹; kd=s⁻¹; KD=M; T½=min) (Tables 3-6).

Dimeric human CD48-mFc = biological target: T2, Dimeric human CD48-mFc; assay: SPR (Biacore T100), 25 C, antibody captured by anti-Fc, dimeric CD48-mFc in solution
Method: as §1, §2

Binder	Kd (Monomeric human CD48-mmH)	T½ (Monomeric human CD48-mmH)	koff (Monomeric human CD48-mmH)	kon (Monomeric human CD48-mmH)	Kd (Dimeric human CD48-mFc)	T½ (Dimeric human CD48-mFc)	koff (Dimeric human CD48-mFc)	kon (Dimeric human CD48-mFc)
H4H1772P (antibody, human IgG4, V domains shown, Human IgG4 Fc (prefix H4H)) VH: EVQLVESGGGLVQPGGSLRLSCAASGFTFSSYWMSWVRQAPGKGLEWVANIMRDGSEKYYVDSVKGRFTISRDNAKNSLYLQMNSLRGEDTAVYYCARERGFYTNYGNWFDPWGQGTLVTVSS VL: DIVMTQSPLSLTVTPGESASISCRSSQSLLHSYGYNSLDWYLQKPGQSPQFLIYLVSNRASGVPDRFSGSGSGTDFTLKISRVEAEDVGVYYCMQVLQTPYTFGQGTKLEIK	1380 pM	1.1 h	0.000176 s⁻¹	127000 M⁻¹ s⁻¹	34.4 pM	14.9 h	1.29e-05 s⁻¹	376000 M⁻¹ s⁻¹
H2M1707N (antibody, mouse IgG2, V domains shown) VH: EGQLLESGGGLAQPGGSLRLSCAASGITFGRYAMSWVRQAPGKGLEWVSLISGSGGSTYHADSVKGRFTISRDNSKNTLYLQMNSLRAEDTAVYYCAIYNNYNWFDPWGQGTLVTVSS VL: EIVLTQSPGTLSLSPGERATLSCRASQSVSSNYLAWYQQKPGQAPRLLIYDASSRATDIPDRFSGSGSGTDFTLTISRLEPEDFAVYYCQQYGSSPRTFGQGTKVEIK	4920 pM	0.3 h	0.000642 s⁻¹	131000 M⁻¹ s⁻¹	92.3 pM	2.92 h	6.59e-05 s⁻¹	714000 M⁻¹ s⁻¹
H4H1707N (antibody, human IgG4, V domains shown, Human IgG4 Fc (prefix H4H)) VH: EGQLLESGGGLAQPGGSLRLSCAASGITFGRYAMSWVRQAPGKGLEWVSLISGSGGSTYHADSVKGRFTISRDNSKNTLYLQMNSLRAEDTAVYYCAIYNNYNWFDPWGQGTLVTVSS VL: EIVLTQSPGTLSLSPGERATLSCRASQSVSSNYLAWYQQKPGQAPRLLIYDASSRATDIPDRFSGSGSGTDFTLTISRLEPEDFAVYYCQQYGSSPRTFGQGTKVEIK	3570 pM	0.317 h	0.000601 s⁻¹	168000 M⁻¹ s⁻¹	73.6 pM	6.8 h	2.83e-05 s⁻¹	385000 M⁻¹ s⁻¹
H2M1709N (antibody, mouse IgG2, V domains shown, Human variable domains, mouse IgG2 Fc (prefix H2M)) VH: QVQLVQSGAEVKKPGASVKVSCKVSGYTLTELSIHWVRQAPGKGLEWMGGFDPEDGETIYAQKFQGRVNMTEDTSTDTAYMELSSLRSDDTTVYFCASLLPYFDYWGQGTLVTVSS VL: EIVLTQSPGTLSLSPGERATLSCRASQSVSSSYLAWYQQKPGQAPRLLIYGASSRATGIPDRFSGSGSGTDFTLSISRLEPEDFAVYFCQQYGSSMYTFGQGTKLEIK	19800 pM	0.0333 h	0.0058 s⁻¹	292000 M⁻¹ s⁻¹	311 pM	0.667 h	0.000288 s⁻¹	928000 M⁻¹ s⁻¹
H3M1766N (antibody, V domains shown, also called H2M1766N) VH: EVQLVESGGGLAQPGGSLRLSCAASGFTFSSYEMNWVRQAPGKGLEWVSYITTSGSTIYYADSVKGRFTMSRDNAKKSLYLEMNSLRAEDTAVYYCAREECTNGVCYKDYQYYGMDVWGQGTTVTVSS VL: DIQMTQSPSSVSASVGDRVTITCRASQNINTWLAWYQQKPGKVPKLLIYAASSLQSGVPSRFSGSGSGTDFTLTISSLQPEDFATYYCQQANSFPLTFGGGTKVEIK	2790 pM	1.08 h	0.000177 s⁻¹	63400 M⁻¹ s⁻¹	510 pM	2.93 h	6.57e-05 s⁻¹	129000 M⁻¹ s⁻¹
H4H1770P (antibody, human IgG4, V domains shown, Human IgG4 Fc (prefix H4H)) VH: QVQLVQSGAEVKKPGAAVKVSCKASGYTFTAYGISWVRQAPGQGLEWMGWISAYDGDTNNAQKFQGRVTMTTDTSSSTAYMELRSLGSDDTAVYYCARDRYSSSSGYFDYWGQGTLVTVSS VL: DIQMTQSPSSVSASVGDRVTITCRASQDISSWLAWSQQKPGKAPKALIYAASSLQSGVPSRFSGSGSGTDFTLTISSLQPEDFATYYCQQANSFPYTFGQGTKLEIK	259 pM	1.27 h	0.000153 s⁻¹	589000 M⁻¹ s⁻¹	3.25 pM	34.7 h	5.54e-06 s⁻¹	1.71e+06 M⁻¹ s⁻¹
H4H1774P (antibody, human IgG4, V domains shown, Human IgG4 Fc (prefix H4H)) VH: QVQLVESGGGVVQPGRSLRLSCAASGFTFSNYGMHWVRQAPGKGLEWVAVIWYDESSKYYTDSVKGRFTISRDNSQNTLYLQMTSLRAEDTAVYYCARDRWTYSHYFEYWGQGTLVTVSS VL: DIQMTQSPSSVSASVGDRVTITCRASQGISSWVAWYQQKPGKAPKLLIYAASSLQSGVPSRFSGSGSGTDFTLTISSLQPEDFATYYCQQANSFPRTFGQGTKVEIK	454 pM	4.08 h	4.72e-05 s⁻¹	104000 M⁻¹ s⁻¹	14.9 pM	41.4 h	4.65e-06 s⁻¹	311000 M⁻¹ s⁻¹
H4H1771P (antibody, human IgG4, V domains shown, Human IgG4 Fc (prefix H4H)) VH: QVQLVQSGTEVKKPGASVKVSCKVSGYTLIDLSIHWVRQAPGEGLEWMGGFDPEESETIYAQKFQGRVTMTEDTSTDTAYMELSSLRSEDTAVYYCVTEPIFGILIHESWGQGTLVTVSS VL: DIVMTQTPLSSPVTLGQPASISCRSSHSPVHSNGHTYLSWLQQRPGQPPRILIYKISRRFSGVPDRFSGSGAGTDFTLKISRVETEDVGIYYCMQASQFPWTFGQGTKVEIK	260 pM	0.917 h	0.000209 s⁻¹	805000 M⁻¹ s⁻¹	7.36 pM	12.7 h	1.52e-05 s⁻¹	2.07e+06 M⁻¹ s⁻¹

Now from value to binder:

Kd (Monomeric human CD48-mmH)	T½ (Monomeric human CD48-mmH)	koff (Monomeric human CD48-mmH)	kon (Monomeric human CD48-mmH)	Kd (Dimeric human CD48-mFc)	T½ (Dimeric human CD48-mFc)	koff (Dimeric human CD48-mFc)	kon (Dimeric human CD48-mFc)	Binder
3200 pM	0.417 h	0.000458 s⁻¹	143000 M⁻¹ s⁻¹	95.8 pM	5.25 h	3.66e-05 s⁻¹	382000 M⁻¹ s⁻¹	H4H1789Pa (antibody, V domains shown, Human IgG4 Fc (prefix H4H)) VH: EVQLLESGGGLVHPGGSLRLSCAASGFTFGGYAMSWVRQAPGKGLEWVSLISGSGGSTYYADSVKGRFTIFRDNSKNTLYLQMISLRAEDSAVYYCAKYSNYDYFDPWGQGTLVTVSS VL: not shown
476 pM	4.1 h	4.69e-05 s⁻¹	98600 M⁻¹ s⁻¹	30.4 pM	21.5 h	8.95e-06 s⁻¹	294000 M⁻¹ s⁻¹	H4H1778P (antibody, human IgG4, V domains shown, Human IgG4 Fc (prefix H4H)) VH: QVQLVESGGGVVQPGRSLRLSCAASGFTFSNYGMHWVRQAPGKGLEWVAVIWYDESSKYYTDSVKGRFTISRDNSQNTLYLQMTSLRAEDTAVYYCARDRWTYSHYFEYWGQGTLVTVSS VL: DIQMTQSPSSVSASVGDRVTITCRASQGISSWVAWYQQKPGKAPKLLIYAASSLQSGVPSRFSGSGSGTDFTLTISSLQPEDFATYYCQQANSFPRTFGQGTKVEIK
194 pM	5.85 h	3.3e-05 s⁻¹	170000 M⁻¹ s⁻¹	14.4 pM	15.7 h	1.23e-05 s⁻¹	854000 M⁻¹ s⁻¹	H4H1781P (antibody, human IgG4, V domains shown, Human IgG4 Fc (prefix H4H)) VH: QVQLVESGGGVVQPGRSLRLSCAASGFTFSNYGMHWVRQAPGKGLEWVAVIWYDDSNKNYADSVKGRFTISRDNSKNTLYLQMNSLRVEDTAVYYCARDRWTYSHFFEYWGQGTLVTVSS VL: DIQMTQSPSSVSASVGDRVTITCRASQGISSWLAWYQQKPGKAPNLLIYAASSLQSGVPSRFGGSGSGTDFSLTISGLQPEDFATYYCQQANSFPRTFGQGTKVEIK
340 pM	3.92 h	4.92e-05 s⁻¹	145000 M⁻¹ s⁻¹	17.9 pM	14.7 h	1.31e-05 s⁻¹	734000 M⁻¹ s⁻¹	H4H1775P (antibody, human IgG4, V domains shown, Human IgG4 Fc (prefix H4H)) VH: QVQLVESGGGVVQPGRSLRLSCAASGFTFSNYGMHWVRQAPGKGLEWVAVIWYDESGKHYADSVKGRFTISRDNSQNTLYLQMTSLRAEDTAVYYCARDRWTYSHYFEYWGQGTLVTVSS VL: DIQMTQSPSSVSASVGDRVTITCRASQDISSWVAWYQQKPGKAPKLLIYAASSLQSGVPSRFSGSGSGTDFTLTISSLQPEDFATYYCQQANSFPRTFGQGTKVEIK
246 pM	4.93 h	3.9e-05 s⁻¹	158000 M⁻¹ s⁻¹	15.1 pM	16.5 h	1.17e-05 s⁻¹	774000 M⁻¹ s⁻¹	H4H1779P (antibody, human IgG4, V domains shown, Human IgG4 Fc (prefix H4H)) VH: QVQLVESGGGVVQPGRSLRLSCAASGFTFSNYGMHWVRQAPGKGLEWVAVIWYDESSKHYADSVKGRFTISRDNSQNTLYLQMTSLRAEDTAVYYCARDRWTYSHYFEYWGQGTLVTVSS VL: DIQMTQSPSSVSASVGDRVTITCRASQDISSWVAWYQQKPGKAPKLLIYAASSLQSGVPSRFSGSGSGTDFTLTISSLQPEDFATYYCQQANSFPRTFGQGTKVEIK
